Experimental data taken from patent US11229679B2, “Compositions for treating heart disease by inhibiting the action of mAKAPβ” (Anchored RSK3 Inhibitors, LLC, priority 2013, dated 2022).

Legend:
[1] = system: neonatal rat ventricular myocytes; experiment: Neonatal rat ventricular myocyte hypertrophy (cross-section area, ANF expression); format: cell-based; conditions: for agonist-induced myocyte hypertrophy: BI-D1870 10 μmol/L, SL0101 50 μmol/L, PE, LIF or FBS, 2 days; for PE-induced hypertrophy: expressed in neonatal myocytes
Description: Neonatal rat myocytes isolation and culture: 1-3 day old Sprague-Dawley rats were decapitated and the excised hearts placed in 1×ADS Buffer (116 mmol/L NaCl, 20 mmol/L HEPES, 1 mmol/L NaH2PO4, 5.5 mmol/L glucose, 5.4 mmol/L KCl, 0.8 mmol/L MgSO4, pH 7.35). The atria were carefully removed and the blood washed away. The ventricles were minced and incubated with 15 mL 1×ADS Buffer containing 3.3 mg type II collagenase (Worthington, 230 U/mg) and 9 mg Pancreatin (Sigma) at 37° C. while shaking at 80 RPM. After 15 minutes, the dissociated cardiac myocytes were separated by centrifugation at 50×g for 1 minute, resuspended in 4 mL horse serum and incubated 37° C. with occasional agitation. The steps for enzymatic digestion and isolation of myocytes were repeated 10-12 times to maximize yield. The myocytes were pooled and spun down again at 50×g for 2 minutes and resuspended in Maintenance Medium (DMEM:M199, 4:1) supplemented with 10% horse serum and 5% fetal bovine serum. To remove any contaminating fibroblasts, the cells were pre-plated for 1 hour before plating on gelatin-coated tissue culture plasticware. This procedure yields >90% pure cardiac myocytes. After 1 day in culture, the media was changed to maintenance medium containing 0.1 mmol/L bromodeoxyuridine to suppress fibroblast growth. Experiments were initiated 1 day after myocyte isolation. Adenoviral infection was performed by addition of adenovirus (multiplicity of infection=5-50) to the media. Plasmids and siRNA oligonucleotides were transfected using Transfast (Promega) and Dharmafect (Thermofisher), respectively, as recommended by the manufacturers using cells cultured in maintenance medium supplemented with 4% horse serum. Starting the day after gene transduction, the cells were treated for as long as 2 days, as indicated for each experiment. Immunocytochemistry: Cultured neonatal cardiomyocytes on plastic coverslips were fixed in 3.7% formaldehyde in PBS, permeabilized with 0.3% Triton X-100 in PBS, and blocked with PBS containing 0.2% BSA and 1% horse serum for 1 hour. The slides were then sequentially incubated for 1 hour with primary and Alexa fluorescent dye-conjugated specific-secondary antibodies (Invitrogen, 1:1000) diluted in blocking buffer. The slips were washed three times with blocking buffer. 1 μg/mL Hoechst 33258 was included in the last wash stop to label nuclei. Slides were sealed in SlowFade Gold antifade buffer (Invitrogen) for fluorescent microscopy. Wide-field images were acquired using a Leica DMI 6000 Microscope. Morphometry: Morphometric data was acquired using IPLab Software. […] For adult mouse cardiac myocytes, the maximum lengths perpendicular (width) or parallel (length) to the myofibrils were measured for >100 freshly dissociated myocytes per heart.

[2] = system: Noonan syndrome mouse model (Raf1L613V knock-in); conditions: Wu 2011; cited from earlier work
[3] = system: NHE1; conditions: Cuello 2007; cited from earlier work
[4] = system: RSK; experiment: RSK activation in neonatal rat ventricular myocytes (pan-RSK phospho-S218 Western blot); format: cell-based; conditions: 10 μmol/L PE, 1 hour
Excerpt: RSK family members can be activated in most cell types by ERK, but not c-Jun N-terminal kinases or p38 (Anjum 2008). ERK phosphorylation is permissive for PDK1 phosphorylation of the RSK N-terminal kinase domain, such that PDK1 phosphorylation of RSK S^218 is indicative of full activation of the enzyme (FIG. 4A). […] The α-adrenergic stimulation with phenylephrine (PE) induced RSK phosphorylation 3-fold by both MEK1/2-dependent (that activates ERK1/2) and MEK5-dependent (that activates ERK5) mechanisms (FIG. 22).
Immunoprecipitations: HEK293 and COS-7 cells were transfected with Lipofectamine 2000 (Invitrogen) or Polyethylenimine “Max” (Polysciences). Cells (including myocytes) were lysed in buffer (20 mmol/L HEPES, pH 7.4, 150 mmol/L NaCl, 5 mmol/L EDTA, 0.5% Triton, 50 mmol/L NaF, 1 mmol/L sodium orthovanadate, 1 mmol/L DTT, and protease inhibitors). After centrifugation at 10,000×g for 10 minutes at 4° C., the clarified extracts were used for immunoprecipitation using appropriate antibodies (10 μg purified antibody or 1-5 μL whole serum) and 20 μL protein G sepharose (Millipore, Fastflow) for 3 hours to overnight at 4° C. The beads were washed 3-5 times with lysis buffer, and the immunoprecipitated proteins were eluted with 1× Laemmli buffer for western blotting. […]

[5] = system: HA-RSK3 fragments, HA-RSK2; experiment: Co-immunoprecipitation of tagged mAKAP and RSK proteins co-expressed in COS-7 cells; format: binding
Description: (§1) Immunoprecipitations: HEK293 and COS-7 cells were transfected with Lipofectamine 2000 (Invitrogen) or Polyethylenimine “Max” (Polysciences). Cells (including myocytes) were lysed in buffer (20 mmol/L HEPES, pH 7.4, 150 mmol/L NaCl, 5 mmol/L EDTA, 0.5% Triton, 50 mmol/L NaF, 1 mmol/L sodium orthovanadate, 1 mmol/L DTT, and protease inhibitors). After centrifugation at 10,000×g for 10 minutes at 4° C., the clarified extracts were used for immunoprecipitation using appropriate antibodies (10 μg purified antibody or 1-5 μL whole serum) and 20 μL protein G sepharose (Millipore, Fastflow) for 3 hours to overnight at 4° C. The beads were washed 3-5 times with lysis buffer, and the immunoprecipitated proteins were eluted with 1× Laemmli buffer for western blotting. Western blots were developed using horseradish peroxidase-conjugated donkey secondary antibodies, Supersignal West Chemiluminescent Substrates (Thermo Scientific) and X-ray film or a Fujifilm LAS-3000 imaging system.

[6] = system: RSK3 and mAKAPβ; experiment: Co-immunoprecipitation of endogenous RSK3 with mAKAPβ complexes from PE-treated myocytes; format: cell-based, rat; conditions: expressed in neonatal myocytes
Description: as §1

[7] = target: T1, RSK3 (Homo sapiens, UniProt Q15349); experiment: Surface plasmon resonance of His-RSK3 binding to immobilized His-mAKAP 1286-1833
T1 construct: bacterially expressed His-tagged mAKAP 1286 to 1833 and full-length RSK3 was analyzed by surface plasmon resonance; His; made in house; host or cells: bacteria (pET30 / pGEX-4T vectors)
Description: Surface Plasmon Resonance: SPR analysis was performed using a BIAcore T100. 200 resonance units His-tagged mAKAP 1286-1833 were covalently immobilized using NHS (N-hydroxysuccinamide) and EDC [1-ethyl-3-(3-(dimethylamino)propyl)carbodiimide] (Biacore amine coupling kit) to the surface of a sensor chip (BIAcore type CM5). His-RSK3 analytes (6.25-200 nmol/L) in HBS buffer (10 mmol/L Hepes, pH 7.4, 150 mmol/L NaCl, and 0.005% Surfactant P20) were injected at a flow rate of 30 μL/min for 5 minutes, followed by buffer alone for another 5 minutes. Sensorgrams were processed by BIAcore T100 evaluation software.
For phosphorylated His-RSK3, 20 μg His-RSK3 was phosphorylated with 2 μg ERK2 (Millipore, 14-550) and/or PDK1 (Sigma, P7498) for 5 hours in kinase buffer (20 mmol/L MOPS, pH 7.2, 25 mmol/L β-glycerol phosphate, 5 mmol/L EGTA, 1 mmol/L sodium orthovanadate, 1 mmol/L DTT) with 0.5 mmol/L MgATP. Phospho-His-RSK3 was purified using His-binding beads and concentrated before use.

T1 sequence (Q15349 whole entry): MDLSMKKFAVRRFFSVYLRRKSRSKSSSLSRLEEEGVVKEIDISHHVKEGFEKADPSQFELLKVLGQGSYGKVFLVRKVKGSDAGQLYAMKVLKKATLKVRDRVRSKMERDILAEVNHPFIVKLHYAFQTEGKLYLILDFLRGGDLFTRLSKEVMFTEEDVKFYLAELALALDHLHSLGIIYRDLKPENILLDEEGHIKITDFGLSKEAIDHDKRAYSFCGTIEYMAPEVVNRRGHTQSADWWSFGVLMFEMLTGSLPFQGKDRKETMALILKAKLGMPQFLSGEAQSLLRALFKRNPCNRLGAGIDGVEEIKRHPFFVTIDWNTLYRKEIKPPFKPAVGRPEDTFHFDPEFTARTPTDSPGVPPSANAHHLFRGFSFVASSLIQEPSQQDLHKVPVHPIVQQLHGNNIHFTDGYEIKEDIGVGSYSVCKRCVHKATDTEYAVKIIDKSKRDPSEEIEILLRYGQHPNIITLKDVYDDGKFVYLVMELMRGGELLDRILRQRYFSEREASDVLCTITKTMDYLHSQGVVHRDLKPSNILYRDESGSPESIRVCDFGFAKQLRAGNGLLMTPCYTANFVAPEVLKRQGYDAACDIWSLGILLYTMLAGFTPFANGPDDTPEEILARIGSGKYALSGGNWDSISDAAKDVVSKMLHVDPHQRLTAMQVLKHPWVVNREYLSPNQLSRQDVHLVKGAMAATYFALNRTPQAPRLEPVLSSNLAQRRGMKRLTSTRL

Molecule: CC(C)CCN1c2nc(Nc3cc(F)c(O)c(F)c3)ncc2N(C)C(=O)C1C (stereo not drawn) [BI-D1870, reference compound]
- agonist-induced myocyte hypertrophy [1]: inhibited

Molecule: O=C(NOC[C@H](O)CO)c1ccc(F)c(F)c1Nc1ccc(I)cc1F [PD0325901]
- progression of cardiac hypertrophy cardiomyopathy and other Noonan characteristics [2]: attenuated progression

Molecule: CC(=O)OC1C(C)OC(Oc2c(-c3ccc(O)cc3)oc3cc(O)cc(O)c3c2=O)C(O)C1OC(C)=O (stereo not drawn) [SL0101, reference compound]
- agonist-induced myocyte hypertrophy [1]: inhibited

Molecule: Cc1ccc(-c2c(C(=O)CF)n(CCCO)c3ncnc(N)c23)cc1 [fmk]
- α-adrenergic-induced NHE1 phosphorylation [3]: blocked

Molecule: CNC[C@H](O)c1cccc(O)c1 [phenylephrine]
- induction of RSK phosphorylation [4]: 3 fold

B1: mAKAP RBD: main RSK3 binding domain of mAKAP, fragment encompassing residues 1694 to 1833; competing binding peptide (protein)
chain: ELSLCSEDIVLHKNKIPESNASFRKRLNRSVADESDVNVSMIVNVSCTSACTDDEDDSDLLSSSTLTLTEEELCLKDEDDDSSIATDDEIYEESNLMSGLDYIKNELQTWIRPKLSLTREKKRSGVTDEIKVNKDGGGNE
modifications: left off: small tags and cut ends
- binding to N-terminally truncated RSK3 mutant (HA-RSK3 DN30) or HA-tagged full-length RSK2 [5]: not
- PE-induced hypertrophy [1]: inhibited

B2: green fluorescent protein-mAKAP RBD fusion protein: myc-GFP-mAKAP RSK binding domain (RBD) fusion protein; mAKAP 1694-1833 (protein)
chain: ELSLCSEDIVLHKNKIPESNASFRKRLNRSVADESDVNVSMIVNVSCTSACTDDEDDSDLLSSSTLTLTEEELCLKDEDDDSSIATDDEIYEESNLMSGLDYIKNELQTWIRPKLSLTREKKRSGVTDEIKVNKDGGGNE
modifications: left off: small tags and cut ends; large carriers
- PE-induced hypertrophy [1]: markedly inhibited
- association of endogenous RSK3 and mAKAPβ [6]: competed

B3: mAKAP 1286 to 1833: bacterially expressed His-tagged mAKAP fragment, residues 1286 to 1833 (protein)
chain: VYSLHNVELHEDSHTPFLKSSPKFTGTTQPTVLTKSLSKDSSFSSTKSLPDLLGGSGLVRPYSCHSGDLSQNSGSESGIVSEGDNEMPTNSDMSLFSMVDGSPSNPETEHPDPQMGDAANVLEQKFKDNGESIKLSSVSRASVSPVGCVNGKAGDLNSVTKHTADCLGEELQGKHDVFTFYDYSYLQGSKLKLPMIMKQPQSEKAHVEDPLLGGFYFDKKSCKAKHQASESQPDAPPHERILASAPHEMGRSAYKSSDIEKTFTGIQSARQLSLLSRSSSVESLSPGGDLFGLGIFKNGSDSLQRSTSLESWLTSYKSNEDLFSCHSSGDISVSSGSVGELSKRTLDLLNRLENIQSPSEQKIKRSVSDMTLQSSSQKMPFAGQMSLDVASSINEDSPASLTELSSSDELSLCSEDIVLHKNKIPESNASFRKRLNRSVADESDVNVSMIVNVSCTSACTDDEDDSDLLSSSTLTLTEEELCLKDEDDDSSIATDDEIYEESNLMSGLDYIKNELQTWIRPKLSLTREKKRSGVTDEIKVNKDGGGNE
modifications: left off: small tags and cut ends
- decrease of RSK3 binding affinity for mAKAP ([7]; RSK3 previously phosphorylated by ERK): 5 fold
- decrease of RSK3 binding affinity for mAKAP ([7]; RSK3 previously phosphorylated by both ERK and PDK1): 8 fold
- KD of binding to full-length RSK3 ([7]; unphosphorylated His-RSK3): nanomolar
